# Results reported in patent US20110274696A1 (Amgen, published 2011).
# “And” between values parts separate entries of the source, which are not always exact repeats. Equal values may be shown once. Where no end group is shown, it is not given here.
# T1: human CCR2 (human, UniProt P41597-2 1-360)
# T1 sequence: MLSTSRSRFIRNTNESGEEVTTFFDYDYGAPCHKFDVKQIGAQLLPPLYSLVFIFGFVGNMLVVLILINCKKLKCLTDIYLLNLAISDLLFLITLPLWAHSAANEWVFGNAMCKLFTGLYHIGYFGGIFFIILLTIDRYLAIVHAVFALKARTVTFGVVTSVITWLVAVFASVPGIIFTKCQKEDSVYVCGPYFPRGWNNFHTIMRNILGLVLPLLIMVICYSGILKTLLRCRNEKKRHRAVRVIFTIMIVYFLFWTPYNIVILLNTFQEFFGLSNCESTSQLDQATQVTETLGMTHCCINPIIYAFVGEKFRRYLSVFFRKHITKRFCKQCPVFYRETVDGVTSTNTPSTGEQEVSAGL
# T2: biotinylated CCR2 loop 3 peptide (human, also: biotinylated, position not given here)
# T2 construct: Synthetic peptide (AnaSpec) captured on a NeutrAvidin plate; also called third loop
# T2 peptide: QEFFGLSNCESTSQLDQ
# T3: biotinylated CCR2 loop 2 peptide (human, biotinylated (position not given))
# T3 construct: Synthetic peptide (AnaSpec) captured on a NeutrAvidin plate; also called second extracellular loop peptide
# T3 peptide: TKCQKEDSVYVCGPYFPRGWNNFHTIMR
# B1: anti-CCR2 monoclonal antibody 4.39.3 (antibody, human IgG4, kappa, V domains shown)
# VH: QVQLVQSGAEVKKPGASVKVSCKASGYTFTSYYIHWVRQAPGQGLEWMGMINPSGGPTSYAQKFQGRVTMTRDTSTSTVYMDLSSLRSEDTAVFYCARERWYKWNFDAFDIWGQGTMVTVSS
# VL: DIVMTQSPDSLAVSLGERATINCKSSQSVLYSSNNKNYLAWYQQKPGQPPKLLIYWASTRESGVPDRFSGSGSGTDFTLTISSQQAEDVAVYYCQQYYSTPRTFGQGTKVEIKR
# B2: anti-CCR2 monoclonal antibody 4.40 (antibody, V domains shown)
# VH: QVQLVESGGGVVQPGRSLRLSCAASGLTFSSYGMHWVRQAPGKGLEWVAVILYDGKNKYYADSVKGRFTISRDNSKNTLYLQMNSLRAEDTAVYYCARDQAYWTYFDAFDIWGQGTMVTVSS
# VL: EIVLTQSPDFQSVTPKEKVTITCRASQSIGSSLHWYQQKPDQSPKLLIKYASQSFSGVPSRFSGSGSATDFTLTINSLEAEDAATYYCHQSSSLPLTFGGGTKVEIKR
# notes: Hybridoma clone from IgG4 XenoMouse mice; Variable domains were also cloned into IgG1, IgG2 and IgG4 formats; also called 4.40.2; 4.40.3
# B3: anti-CCR2 monoclonal antibody 4.9 (antibody, human IgG4, kappa, V domains shown)
# VH: QVQLVESGGGVVQPGRSLRLSCAASGFTFSSYGMHWVRQAPGKGLEWVAVQTYDGRNKYYADSVKGRFTISRDNSKKTLYLQMNRLRAEDTAVYYCARDQAYWKYFDAFDIWGQGTMVTVSS
# VL: DIQMTQSPSSLSTSVGDRVTITCRASQSISSYLNWYQQKPGKAPKLLIYAASSLQSGVPSRFSGSGSGTDFTLTISSLQPEDFATYYCQQSYNSPCSFGQGTKLEIKR
# notes: Hybridoma clone from IgG4 XenoMouse mice; also called 4.9.2; 4.9.3
# B4: anti-CCR2 antibody 4.40 A68G S230P (antibody, human IgG4 S228P, kappa, V domains shown)
# VH: QVQLVESGGGVVQPGRSLRLSCAASGLTFSSYGMHWVRQAPGKGLEWVAVILYDGKNKYYADSVKGRFTISRDNSKNTLYLQMNSLRAEDTAVYYCARDQAYWTYFDAFDIWGQGTMVTVSS
# VL: EIVLTQSPDFQSVTPKEKVTITCRASQSIGSSLHWYQQKPDQSPKLLIKYASQSFSGVPSRFSGSGSGTDFTLTINSLEAEDAATYYCHQSSSLPLTFGGGTKVEIKR
# notes: Recombinant human IgG4 with the hinge mutation S230P (heavy chain) and the germline reversion A68G (light chain) of 4.40; also called 4.40.3 A68G S230P; 4.40.2 A68G S230P
# Columns and labels:
# [1] = biological target: T1, human CCR2; assay: cell-based or functional assay
# [2] = biological target: T1, human CCR2; assay: cell-based or functional assay; remark: listed apart in the source
# [3] = biological target: T2, biotinylated CCR2 loop 3 peptide; assay: peptide ELISA
# Protocol: (§1) In addition, epitope binding to the first and/or second loop of CCR2 was also assessed using a peptide ELISA. A Reacti-Bind NEUTRAVIDIN™ Coated, High Binding Capacity ELISA plate (Pierce; Rockford, Ill.) was washed 3× with PBS/0.05% Tween20 and then coated with 100 ul/well of 6 ug/ml biotinylated CCR2 loop 2 (SEQ ID NO:129) or loop 3 (SEQ ID NO:130) peptide (AnaSpec; San Jose, Calif.). The plate was incubated for 1 hour and then washed 3×. The CCR2 antagonist antibody 4.40.3 A68G S230P or other primary antibody, diluted in PBS/0.1% BSA/0.05% Tween20, was then added to the plate in serial dilution and incubated for 1 hour, as were other controls. The plate was washed 3× and 100 ul/well HRP-Mouse anti-Human IgG4 secondary antibody (Zymed; So. San Francisco, Calif.) was added to all the wells at 1:5000 dilution and incubated for 1 hour. The plate was washed 3× and TMB substrate was added to all the wells and incubated for ˜30 minutes. The color reaction was stopped with 2M H₂SO₄ and the absorbance reading was measured on a plate reader at […] (FIG. 8).
# [4] = biological target: T3, biotinylated CCR2 loop 2 peptide; assay: peptide ELISA, biotinylated peptide on NeutrAvidin plate
# Protocol: as §1
# [5] = biological target: T4, RMMR chimeric receptor (N-terminus and 3rd loop of CCR1; 1st and 2nd loops of CCR2), FLAG-tagged; assay: FACS saturation binding on RMMR chimera transfected 300-19 cells
# T4 construct: also called 1st and 2nd loops of CCR2 (RMMR)
# Protocol: (§2) Fifteen minutes later, a secondary detection antibody, R-Phycoerythrin conjugated Affini-pure F(ab′) fragment Donkey anti-human IgG H+L (Jackson 709-116-149), was added. Tubes were gently shaken for 3 hours at room temperature. After 2 washes in buffer, cells were resuspended in 500 ul of buffer and assessed on a FACS CALIBUR™. A total of 10,000 events per tube were assessed. The mean channel fluorescent intensity was assessed for each concentration of antibody as an indicator for the magnitude of staining.
# (§3) Binding of antibodies to the CCR2/CCR1 chimeric receptors was assessed using FACS analysis. All receptors were tagged at the N-terminus with FLAG and also stained with the anti-FLAG antibody M1 such that receptor expression could be confirmed. FIGS. 6A & B illustrate the FACS staining of FLAG on the N-terminus with M1 antibody (FIG. 6A) as compared to the staining of 4.40 (FIG. 6B). FIG. 6C illustrates a saturation binding curve of the 4.40 A68G S230P antibody on RMMR chimera transfected 300-19 cells.
# [6] = biological target: T1, human CCR2; assay: FACS saturation binding, 3 hour assay, 300-19 cells expressing human CCR2; full-length human CCR2 on transfected 300-19 cells, not the chimera; KD in ug/mL
# Protocol: as §2, with “Briefly, using a buffer of Dulbecco's Phosphate Buffered Saline containing 2% heat inactivated Fetal Bovine Serum, 0.002% Sodium Azide and 0.005 mg/ml Cytochalasin-B (Sigma 6762), 1 million cells in a volume of 100 ul were stained with the test antibody. Fifteen” for “Fifteen”
# [7] = biological target: T1, human CCR2; assay: FACS saturation binding (3 hour assay) on CCR2 transfected 300-19 cells, PE anti-human IgG detection
# Protocol: as §2, with “Briefly, using a buffer of Dulbecco's Phosphate Buffered Saline containing 2% heat inactivated Fetal Bovine Serum, 0.002% Sodium Azide and 0.005 mg/ml Cytochalasin-B (Sigma 6762), 1 million cells in a volume of 100 ul were stained with the test antibody. Fifteen” for “Fifteen”
# [8] = biological target: T5, CCR5 (human, UniProt P51681 1-352); assay: FACS, AF-488 conjugated antibody on 300-19 cells expressing recombinant CCR5
# T5 construct: also called recombinant CCR5; human CCR5
# T5 sequence (P51681 whole entry): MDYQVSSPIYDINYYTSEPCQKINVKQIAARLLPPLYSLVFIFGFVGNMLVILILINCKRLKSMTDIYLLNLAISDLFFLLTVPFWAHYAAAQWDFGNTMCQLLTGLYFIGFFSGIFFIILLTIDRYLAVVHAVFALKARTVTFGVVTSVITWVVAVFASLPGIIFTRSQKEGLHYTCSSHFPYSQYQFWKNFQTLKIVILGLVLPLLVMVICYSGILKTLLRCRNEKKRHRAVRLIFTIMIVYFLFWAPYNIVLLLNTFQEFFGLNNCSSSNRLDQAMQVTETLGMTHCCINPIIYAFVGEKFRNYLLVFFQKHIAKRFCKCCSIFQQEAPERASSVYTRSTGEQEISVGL
# Protocol: The selectivity of the 4.40 A68G S230P antibody for human CCR2 was confirmed by the absence of binding to a closely related chemokine receptor, CCR5, as shown in FIG. 9 and by the lack of inhibition of chemotaxis induced by the CCR5/CCR1 ligand MIP-1a (FIG. 3). […] For these studies, 300.19 cells engineered to express CCR5 were incubated with either the CCR2 selective antibody, 4.40 A68G S230P, or the CCR5-selective antibody for 30 minutes. Cells were then washed in FACS buffer (0.02% sodium azide, 2% heat inactivated fetal bovine serum in PBS) and analyzed for cell surface expression using a flow cytometer using standard methods.
# [9] = biological target: T1, human CCR2; assay: cell-based or functional assay; remark: listed apart in the source
# [10] = biological target: cynomolgus monkey CCR2 (cynomolgus monkey); assay: cell-based or functional assay
# [11] = biological target: T3, biotinylated CCR2 loop 2 peptide; assay: capture ELISA, biotinylated CCR2 loop 2 peptide on a NeutrAvidin plate, HRP anti-human IgG4, absorbance at 450 nm
# Protocol: as §1
# [12] = biological target: T4, RMMR chimeric receptor (N-terminus and …); assay: FACS saturation binding on 300-19 cells expressing the chimera with the first and second extracellular loops of CCR2 (FIG. 6C)
# Protocol: as §2, §3
# [13] = biological target: T2, biotinylated CCR2 loop 3 peptide; assay: capture ELISA, biotinylated CCR2 loop 3 peptide on a NeutrAvidin plate, HRP anti-human IgG4, absorbance at 450 nm
# Protocol: as §1
binder,measurement,setting,value
B1,Chemotaxis IC50,[1],0.139 µg/mL
same,"Inhibition of MCP-1-induced THP-1 Chemotaxis, IC50",[2],0.139 µg/mL
B2,Chemotaxis IC50,[1],0.13 µg/mL
same,"Inhibition of MCP-1-induced THP-1 Chemotaxis, IC50",[2],0.137 µg/mL
same,binding result,[3],no binding
same,binding result,[4],binds
B3,Chemotaxis IC50,[1],0.198 µg/mL
same,"Inhibition of MCP-1-induced THP-1 Chemotaxis, IC50",[2],0.198 µg/mL
same,binding result,[3],no binding
same,binding result,[4],binds
B4,EC50 (read off the curve),[5],~0.05 µg/mL
same,Kd,[5],0.0226 µg/mL
same,Kd,[6],0.085 µg/mL
same,EC50 (read off the curve),[7],~0.08 µg/mL
same,Kd,[7],0.0849 µg/mL
same,binding result,[8],no binding
same,"inhibition of MCP-1 induced actin polymerization in monocytes, human whole blood, IC50",[9],0.168 µg/mL
same,"inhibition of MCP-1 induced pERK phosphorylation in human whole blood, IC50",[9],0.44 µg/mL and 2.9 nM
same,"inhibition of chemotaxis of THP-1 monocytes in response to MCP-1, IC50",[9],0.148 µg/mL
same,"inhibition of collagen IAI mRNA synthesis in LI90 cells induced by MCP-1, IC50",[9],0.89 µg/mL and 6.2 nM
same,"inhibition of MCP-1 induced whole blood actin polymerization in the cynomolgus monkey, IC50",[10],0.49 µg/mL
same,binding result,[11],binds
same,Kd,[12],0.023 µg/mL and 0.16 nM
same,binding result,[13],no binding (tested: about 6 ug/ml)
